Patent publication US20110251266, “APTAMER FOR NGF AND USE THEREOF” (Shionogi & Co., Ltd., published 2011)
Residue numbers refer to the chain shown, from its start.

B1: SEQ64 aptamer (ssRNA)
RNA: GGGAGAACUUCGACCAGAAGUUUGAAAGAAACCCAAAACAUUAGCACACAUAUGUGCGCAUACAUGGAUCCUCA
modifications: 2'-F pyrimidines
B2: SEQ37 aptamer (ssRNA)
RNA: B1 RNA with A38G, C39G, A40U, U41G, U42A, G44A, C47A, A48C, C49A
modifications: 2'-F pyrimidines
B3: SEQ42 aptamer (ssRNA)
RNA: B1 RNA with G28A, C39G, U41G, U42C, C47G, C49G
modifications: 2'-F pyrimidines
B4: SEQ54 aptamer (ssRNA)
RNA: GGGAGAACUUCGACCAGAAGUCGAAAGUGAAAGAAACUCCAACGAAAGCAUAUGUGCGCAUACAUGGAUCCUCA
modifications: 2'-F pyrimidines
B5: SEQ6 aptamer (ssRNA)
RNA: GGGAAGCCUGUGGAGCUGCAGGAUGAAAAAAACCCAAAAUUAAAUAAAAAAUAGACGGUGCAUUGUCACCAACAACUGG
modifications: 2'-F pyrimidines
B6: SEQ43 aptamer (ssRNA)
RNA: GGGAGAACUUCGACCAGAAGCUUGAAAAAACCCCAAUAUGAGAAUCAUAUAUGUGCGCAUACAUGGAUCCUCA
modifications: 2'-F all pyrimidines
B7: SEQ47 aptamer (ssRNA)
RNA: GGGAGAACUUCGACCAGAAGAAGUUUGAAAAGAACCCAAAAUGAGCAAAAUAUGUGCGCAUACAUGGAUCCUCA
modifications: 2'-F all pyrimidines
B8: SEQ63 aptamer (ssRNA)
RNA: GGGAGAACUUCGACCAGAAGAUUUGAAAGAAACCCAAACUAAGCACAAAAUAUGUGCGCAUACAUGGAUCCUCA
modifications: 2'-F all pyrimidines
B9: SEQ49 aptamer (ssRNA)
RNA: GGGAGAACUUCGACCAGAAGUGAAAGAAACUCCCAAGACGGUAACGAAAGUAUGUGCGCAUACAUGGAUCCUCA
modifications: 2'-F pyrimidines
B10: SEQ56 aptamer (ssRNA)
RNA: B9 RNA with G37C, G40A, G41A, U42A, A43U, A44G, G46A, A47C, G50C
modifications: 2'-F all pyrimidines
B11: SEQ50 aptamer (ssRNA)
RNA: B9 RNA with G26A, A29C, G37U, G40A, G41A, U42A, A43C, G46A, G50A
modifications: 2'-F all pyrimidines
B12: SEQ61 aptamer (ssRNA)
RNA: GGGAGAACUUCGACCAGAAGGUCGUAACGAAUAAAACUCCUGCACAAAAAUAUGUGCGCAUACAUGGAUCCUCA
modifications: 2'-F all pyrimidines
B13: SEQ48 aptamer (ssRNA)
RNA: GGGAGAACUUCGACCAGAAGUUUGAAAAGAACCCGAAAAACGCAUAAUAAUAUGUGCGCAUACAUGGAUCCUCA
modifications: 2'-F all pyrimidines
B14: SEQ66 aptamer (ssRNA)
RNA: B13 RNA with G29A, G35A, A38G, A39C, C41A, U45C, U48C, A50U
modifications: 2'-F all pyrimidines
B15: SEQ5 aptamer (ssRNA)
RNA: GGGAAGCCUGUGGAGCUGCUUAAACAAGCAAGUGAAAAAAACCACAGCAAAUGUAAAAAGCAUUGUCACCAACAACUGG
modifications: 2'-F pyrimidines
B16: SEQ39 aptamer (ssRNA)
RNA: GGGAGAACUUCGACCAGAAGUGUGAAAAGAACCCAAAUAAAACAACAAUGUAUGUGCGCAUACAUGGAUCCUCA
modifications: 2'-F pyrimidines
B17: SEQ65 aptamer (ssRNA)
RNA: B16 RNA with G29A, A39C, A40G, A42G, A45C, C46A, U49A, G50U
modifications: 2'-F all pyrimidines
B18: SEQ46 aptamer (ssRNA)
RNA: GGGAGAACUUCGACCAGAAGUUUGAAACAAACCCAAAGUUACGCACAAAAUAUGUGCGCAUACAUGGAUCCUCA
modifications: 2'-F all pyrimidines
B19: SEQ53 aptamer (ssRNA)
RNA: GGGAGAACUUCGACCAGAAGUUUGAAAGGAACCCAAAAACACAAAAUGUCUAUGUGCGCAUACAUGGAUCCUCA
modifications: 2'-F all pyrimidines
B20: SEQ59 aptamer (ssRNA)
RNA: GGGAGAACUUCGACCAGAAGUCGAAACGUUUGAAAAAAACCCAAGGAGGAUAUGUGCGCAUACAUGGAUCCUCA
modifications: 2'-F all pyrimidines
B21: SEQ35(6) (ssRNA)
RNA: GGGAAGCCUGUGGAGCUGCAGGAUGAAAAAAACCCAAA
modifications: 2'-F pyrimidines and a23, 2'-OMe at g1 g2 a4 a5 g6 g10 g12 g13 a14 g15 g18 a20 g21 g22 a29-a32 a36-a38, 5' and 3' idT
B22: SEQ35(5) (ssRNA)
RNA: B21 RNA
modifications: 2'-F pyrimidines, 2'-OMe at g1 g2 a4 a5 g6 g10 g12 g13 a14 g15 g18 a20 g21 g22 a29-a32 a36-a38, 5' and 3' idT
B23: SEQ35(1) (ssRNA)
RNA: B21 RNA
modifications: 2'-F pyrimidines, 2'-OMe at a4 a5 g6 g10 g12 g13 a14 g15 g18 a20 g21 g22, 5' and 3' idT
B24: SEQ38 aptamer (ssRNA)
RNA: GGGAGAACUUCGACCAGAAGAGAAUGAAACUCCACAAAGUACAUAAAACAUAUGUGCGCAUACAUGGAUCCUCA
modifications: 2'-F pyrimidines
B25: SEQ12 aptamer (ssRNA)
RNA: GGGAAGCCUGUGGAGCUGCGAAACAGUGAAACAAACCACAGACUGAGAAAGCAGUAACAGCAUUGUCACCAACAACUGG
modifications: 2'-F pyrimidines
B26: SEQ57 aptamer (ssRNA)
RNA: GGGAGAACUUCGACCAGAAGUUUGAAAAAAACCCAAACACCGAAGCACAAAUAUGUGCGCAUACAUGGAUCCUCA
modifications: 2'-F pyrimidines
B27: SEQ52 aptamer (ssRNA)
RNA: GGGAGAACUUCGACCAGAAGUUUGAAAGAAACCCAAAUAUACAAAACACUAUGUGCGCAUACAUGGAUCCUCA
modifications: 2'-F pyrimidines
B28: SEQ55 aptamer (ssRNA)
RNA: GGGAGAACUUCGACCAGAAGUUUGAAAGAAACCCAAAAAUGAAUGCAACUAUGUGCGCAUACAUGGACCUCA
modifications: 2'-F all pyrimidines
B29: SEQ45 aptamer (ssRNA)
RNA: GGGAGAACUUCGACCAGAAGAGAAUGAAACUCCCAAAUCAAGGACAAUGAUAUGUGCGCAUACAUGGAUCCUCA
modifications: 2'-F all pyrimidines
B30: SEQ83 aptamer (ssRNA)
RNA: GGGAGAACUUCGACCAGAAGUUGAAGCUUGAAAAAAACCCAGGAUUAAACAGACAGUAUGUGCGCAUACAUGGAUCCUC
modifications: 2'-F pyrimidines
B31: SEQ51 aptamer (ssRNA)
RNA: GGGAGAACUUCGACCAGAAGUUUGAAAGAAACCCAAAAAAACAACAUAUGAACUAUGUGCGCAUACAUGGAUCCUCA
modifications: 2'-F pyrimidines
B32: SEQ84 aptamer (ssRNA)
RNA: GGGAGAACUUCGACCAGAAGUGAAAGAAACUCCCGAUGAAAGAUGUAACAAACCAUAUGUGCGCAUACAUGGAUCCUC
modifications: 2'-F all pyrimidines
B33: SEQ30(5) (ssRNA)
RNA: GGGAUAAAAAUAGAGUUUGAUAAACACCUGUAUUAAAACCC
modifications: 2'-F pyrimidines and some purines, 2'-OMe at many purines as printed in p174, 5' and 3' idT
B34: SEQ30(6) (ssRNA)
RNA: B33 RNA
modifications: 2'-F pyrimidines and some purines, 2'-OMe at most purines including g1-g3 as printed in p174, 5' and 3' idT

What was measured:
[1] = target: T1, beta-NGF (nerve growth factor) (Homo sapiens, UniProt P01138 P01138:122-241); assay: cell_activity; Neuroscreen-1 neurite outgrowth; details: tags: R&D Systems human NGF; chain copies: 2
T1 sequence (P01138 122-241, one chain of several): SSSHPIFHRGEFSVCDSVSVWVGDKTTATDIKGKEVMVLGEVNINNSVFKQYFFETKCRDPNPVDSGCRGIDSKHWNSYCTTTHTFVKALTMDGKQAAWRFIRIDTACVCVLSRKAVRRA
Procedure: (§1) The neurite outgrowth inhibitory activity of aptamer was evaluated by using Neuroscreen-1 cell, which is a subclone of PC-12 cells. 2500 Cells per well were cultured for one day in an RPMI-1640 medium containing 2.5% horse serum and 1.25% fetal bovine serum in a 96 well flat-bottom plate coated with collagen type IV. A mixed solution of NGF (final concentration 15 ng/ml or 1.1 nM) prereacted in a serum-free RPMI-1640 medium at room temperature or 37° C. for 30 min to 1 hr and an aptamer (final concentration 500-3 nM) was added. Two or three days later, the cytoplasm and nuclei were stained using Cellomics Neurite Outgrowth Kits (manufactured by Thermo Scientific), and neurite length per cell was measured by Cellomics ArrayScan VTI (manufactured by Thermo Scientific). With the neurite length per cell obtained by culturing the cell for 2 days with the addition of NGF alone as inhibitory activity 0%, and that of the cell obtained by NGF free culture as inhibitory activity 100%, the inhibitory activity of the aptamer was calculated from the neurite length per cell obtained by culturing with the addition of NGF and the aptamer in mixture. […] When the inhibitory activity was 0% or below, ‘0%’ is indicated. When it was not less than 100%, ‘100%’ is indicated. The 50% inhibitory concentration was determined from the concentrations at two, above and below points sandwiching the 50% inhibitory activity.

[2] = target: T1, beta-NGF (nerve growth factor); assay: cell_activity; neurite outgrowth, Neuroscreen-1 cells; details: tags: R&D Systems; chain copies: 2
Procedure: as §1

[3] = target: T1, beta-NGF (nerve growth factor); assay: SPR; blocks NGF-TrkA and NGF-P75; details: tags: R&D Systems; chain copies: 2
Procedure: As directed in BIAcore Company's protocol, Protein A (21181, PIERCE) was immobilized on a CM5 sensor chip. About 1100 RU of human Trk A-Fc fused with the Fc portion of IgG (175-TK, R&D systems) was immobilized thereon. As the analyte, a mixture of NGF (0.1 μM) and each aptamer (0.33 μM) was injected after being allowed to stand for 30 minutes. […] When NGF binds stronger to a receptor than an aptamer, the aptamer may be removed and NGF may bind to the receptor. […] Using the binding amount of NGF and NGF receptor without an aptamer as 100, the binding amount of NGF and NGF receptor added with an aptamer was determined as a correction value. Here, the binding amount is the RU value at the peak top of the sensorgram of BIAcore (RU value immediately after completion of NGF injection). […] A similar experiment was performed for another receptor P75 (p75-Fc; R&D systems).

Binder	IC50 [1]	IC50 [2]	activity [3]
B1	4.8 nM		
B2	6.6 nM		
B3	6.6 nM		
B4	7.6 nM		
B5	17.7 nM		
B6		< 10 nM	≥ 60 % inhibition
B7		14.6 nM	≥ 60 % inhibition
B8		< 10 nM	≥ 60 % inhibition
B9	4.6 nM		
B10		18.8 nM	
B11		25.4 nM	≥ 60 % inhibition
B12		20.7 nM	≥ 60 % inhibition
B13		46.4 nM	≥ 60 % inhibition
B14		< 10 nM	≥ 60 % inhibition
B15	21 nM		
B16	6.3 nM		
B17		22.2 nM	≥ 60 % inhibition
B18		25.4 nM	≥ 60 % inhibition

Binder	IC50 [1]	IC50 [2]	activity [3]
B19		< 10 nM	≥ 60 % inhibition
B20		71.5 nM	≥ 60 % inhibition
B21	73.5 nM		
B22	79.8 nM		
B23	94.7 nM		
B24	7.3 nM		
B25	43.4 nM		
B26	6.4 nM		
B27	6.7 nM		
B28		49.9 nM	≥ 60 % inhibition
B29		20.2 nM	≥ 60 % inhibition
B30	7.1 nM		
B31	11.9 nM		
B32		14.6 nM	≥ 60 % inhibition
UGUGGAGCUGCUUAAACAAGCAAGUGAAAAAAACCACA (ssRNA, 2'-F pyrimidines) [SEQ32 aptamer]	84.7 nM		
GGGAUAAAAAUAGAGUUUGAUAAACACCUGUAUUAAAACCC (ssRNA, 2'-F pyrimidines) [SEQ30 aptamer]	57.6 nM		
B33	< 100 nM		
B34	58.9 nM		
